This note sets out measurements from paper PMC8415103 (Biochemistry, 2021).

The target in data set [1] is NikS (Streptomyces tendae, UniProt Q9F2E5). The data set is described as follows: steady-state amide ligation kinetics, substrate inhibition model. It is filed as biochemical. The note with it: HPHT as co-substrate.
Substrate in data set [2]: N[C@H](C(=O)O)[C@H]1O[C@@H](n2ccc(=O)[nH]c2=O)[C@H](OP(=O)(O)O)[C@@H]1O
Described as above. Type of data set: biochemical, Streptomyces tendae. As to conditions: HPHT as co-substrate.

Substrate in data set [3]: N[C@H](C(=O)O)[C@H]1O[C@@H](n2cc(C(=O)O)c(=O)[nH]c2=O)[C@H](O)[C@@H]1O
Put plainly: steady-state amide ligation kinetics, Michaelis-Menten fit. It is filed as biochemical, Streptomyces asoensis. The note with it: 200 μM CPOAA, 1 mM ATP, 3 mM MgCl2.

Substrate in data set [4]: N[C@H](C(=O)O)[C@H]1O[C@@H](n2ccc(=O)[nH]c2=O)[C@H](OP(=O)(O)O)[C@@H]1O
Described as above. Type of data set: biochemical, Streptomyces asoensis. The note with it: 200 μM CPOAA, 1 mM ATP, 3 mM MgCl2.

Substrate in data set [5]: N[C@H](C(=O)O)[C@H]1O[C@@H](n2ccc(=O)[nH]c2=O)[C@H](O)[C@@H]1O
Described as above. As to conditions: 200 μM CPOAA, 1 mM ATP, 3 mM MgCl2. Type of data set: biochemical, Streptomyces asoensis.

In the case of `N[C@H](C(=O)O)[C@H]1O[C@@H](n2ccc(=O)[nH]c2=O)[C@H](OP(=O)(O)O)[C@@H]1O` [compound 6, AHAP], in data set [1], the Ki is 111 ± 38 µM.

B1: NikS (Streptomyces tendae) (protein)
chain: MKAEQGPFLLLNTKKIVSRLHEWFPDAARELVVVTTKADIPSADISAYARRFLHLEVVPNLWELSDDELLALARRFGVRRILSLGEREVLRAARIRAELGLPGQSLASATAYRDKHVMKSTLAAAGIDVAPMRKFRTNDDLAEFAWKVGFPVVVKELDSGASNGTVVLMDEEDLRALPERATAAPRLAEAWVEGDFYHVNGLMKDGEVVLAVPSRNLYSDWFSVAYDAPTMTGMMPDDHPLSERLRSTARQVVAALPAVPDLCAFHLELFHTADDRVVVCEIACRAGAALVSDVHEAVLGVNFHGASLLGQAGRGDQVEIRPTGERLGFVWFPPAKGVLRALPDTCPLPGTVSYRPCGDIGRRYGSSSGLGRPIAEMVFRLTEPDTGAELRRIEEWWDDNVVWEHRTNAVPDRWKTPRRKPADA
For the molecule B1, in data set [2], the Km came out at 10.9 ± 2.6 µM and the kcat was 0.0283 ± 0.005 s⁻¹.

B2: PolG (Streptomyces asoensis) (protein)
chain: MFLLLNNKPILHRVPEWFPQARQELIVVSTRSGLGTSAFPELARGFRHLHLVSSLDRPGLEEDLVALCRRFGVRRVLSTGEREVLPAATLRERLGLPGQDVACATAYRDKYTMKSLLTEAGIPVAPMRRLASPADLDAFADEAGFPLVVKSRLSGGSNGTRVLWDGDALTAFTDDWAAGRTAAPDLAEAWVEGDFYHINGLMRDGRILLAQPSYQPYSDWFSVAYDAPGMSGMMPDEDPMSARLRDTAAKVVATMPAVPGVCAFQVEFFHTPDDRLVVCETACRAGGSRMVETHEDTLGVHLHGASLLGQAGRSDQVTIRPTGRRQGYARFPSAHGVLRHLPRRSPLPQTLLYTATGEEGRHYDPATSLGSSVAEIVVSLTGPDTAAELLAVETWWESAVVWQDRRNPVPDRFKSVHRVRPDTRERALHV
Take B2: the Km came out at 334 ± 68 µM in data set [3], 9.1 ± 0.4 µM in data set [4] and 931 ± 122 µM in data set [5]. In addition, the kcat in data set [3] was 0.0233 ± 0.0067 s⁻¹; in data set [4] it was 0.0583 ± 0.0033 s⁻¹; in data set [5], 0.0112 ± 0.00067 s⁻¹.
